# Experiments:
# [1] = target: human insulin receptor (IR), CHO cell line overexpressing human IR (pAkt assay) (human) (UniProt P06213); experiment: cell-based or functional assay
# [2] = target: minipig insulin receptor (IR) (minipig); experiment: cell-based or functional assay
substance,measurement,setting,value
Insulin levemir (ligand),"Insulin Receptor pAK Assay EC50, Human",[1],0.51 nM
same,"Insulin Receptor pAK Assay EC50, Minipig",[2],0.5 nM
Insulin degludec (ligand),"Insulin Receptor pAK Assay EC50, Human",[1],0.48 nM
